B1: apMAFG3F (ssDNA)
DNA: GCGGATGAAGACTGGTGTGCTGTGCTTTGACGACTGTCTAGTGGGTTTTCTTCCCCCGGCCCTAAATACGAGCAAC
B2: apMAFG6F (ssDNA)
DNA: GCGGATGAAGACTGGTGTCGATGCATGTGTAGTGCATTTCGAGCCGTTCTATTGGTGTGCCCTAAATACGAGCAAC
B3: apMAFG11F (ssDNA)
DNA: GCGGATGAAGACTGGTGTCGCGAACCGGGTTACTTTTGTCGCGGGTCGTCGGATCTGTGCCCTAAATACGAGCAAC
B4: GCGGATGAAGACTGGTGTGCTGTGCTTTGACGACTGTCTAGTGGGTTTTCTTCCCCCGGCCCTAAATACGAGCAAC (nucleic acid)
chain: GCGGATGAAGACTGGTGTGCTGTGCTTTGACGACTGTCTAGTGGGTTTTCTTCCCCCGGCCCTAAATACGAGCAAC
modifications: chemistry not given here
notes: DNA aptamer selected against the MAFG protein by SELEX
B5: GCGGATGAAGACTGGTGTCGCGAACCGGGTTACTTTTGTCGCGGGTCGTCGGATCTGTGCCCTAAATACGAGCAAC (nucleic acid)
chain: GCGGATGAAGACTGGTGTCGCGAACCGGGTTACTTTTGTCGCGGGTCGTCGGATCTGTGCCCTAAATACGAGCAAC
modifications: chemistry not given here
notes: as for B4

What was measured:
BSA = BSA (UniProt P02769 P02769:25-607); assay: ELONA; background control; MAFG signal up to four times that of BSA; conditions: label: 5' digoxigenin
[1] = biological target: T1, MAFG peptide M4 (IVQLKQRRRTLKNRGYAASCR) (Homo sapiens, UniProt O15525 SEQ:49-69); assay: ELONA; 20 nM aptamer, 1 ug peptide plated, 37 C 1 h; values only in figure; epitope M4 (residues 57-75 of MAFG); conditions: protein: synthetic; tags: synthetic peptide; label: 5' digoxigenin
T1 chain: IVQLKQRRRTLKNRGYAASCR
Experimental: (§1) FIG. 9. Characterization of the interaction of aptamers with MAFG. ELONAS in which the Aptamers bound to digoxigenin (20 nM) were incubated 1 hour at 37° C. with 10 peptides (1 μg) previously attached to the plate overnight. After incubating 1 hour with antidigoxigenin-Peroxidase 1/1000, ABTS was added and at 10 minutes the absorbance at 405 nm was measured.

[2] = tested on: human MAFG peptides M1-M10; assay: ELONA of aptamers with 10 MAFG peptides; format: binding; conditions: digoxigenin aptamer 20 nM, 1 μg peptide, absorbance at 405 nm
Experimental: as §1
In order to identify compounds of the invention and starting from the amino acidic sequence of human MAFG (NCBI Reference Sequence: NP_116100.2) of: SEQ ID NO 2: […]); we designed the following 10 peptides (please refer to table below):
Peptide M4, amino acids 49-68 corresponds to the basic MAFG region containing the tyrosine residue (Tyr64), as well as the arginine residue (Arg57) required for binding to the DNA, in addition to a nuclear localization signal.

MAFG-Myc = biological target: T2, MAFG-Myc (Homo sapiens, UniProt O15525); assay: Enzyme-linked oligonucleotide assay (ELONA) of aptamers and aptamer populations; format: binding; conditions: for affinity against MAFG: Example 1, individual aptamers; for binding capacity to the target: Example 3, individual sequences from SEL6MAFG; for binding signal relative to BSA protein: individual sequences from SEL6MAFG
T2 construct: Myc (C); DDK (FLAG)
Experimental: FIG. 4. Analysis of the affinity of the aptamers against MAFG. (A) Quantification of aptamer-MAFG complexes by qPCR comparing absence (dot pattern) or presence (filled pattern) of MAFG protein. […] Bars represent the mean±SEM of 2-3 experiments (B) Specificity binding assay of aptamers to MAFG performed by ELONA. MAFG-myc was plated at 50ng/well in 96-well plates followed by incubation with 5′ digoxigenin-labeled aptamers from RND40, SEL3MAFG and SEL6MAFG. The figure represents the mean±SEM of 3 independent experiments. p<0.01. (C) Aptacytochemistry in HEK-293T cells transiently transfected with MAFG-myc. Cells overexpressing MAFG were incubated with 5′ Alexafluor 488-conjugated aptamers from RND40, SEL3MAFG or SEL6MAFG (upper panel) or Myc antibody (lower panel). Confocal microscopy images corresponding to the staining of nuclei with Hoechst (blue), antibodies (red), and aptamers (green) are shown. Arrowhead indicates positive cells. Bar=13 μm. (D) Study of individual aptamers affinity performed by ELONA. Recombinant MAFG was plated at 50 ng/well in 96-well plates followed by incubation with 5′ digoxigenin-labeled individual aptamers apMAGF3F, apMAFG6F and apMAFG11F. The figure represents the mean±SD of 2 independent experiments. (E) Secondary structures of aptamers apMAGF3F, apMAFG6F and apMAFG11F obtained by bioinformatics sequence analysis using the mFold software taking into account the lower free energy (AG).
(ii) Enzyme-linked oligonucleotide assay (ELONA): Aptamers were labeled by PCR using 5′ digoxigenin-labeled F3/5′ digoxigenin-labeled R3 primers (IBA Life Sciences). To assess the enrichment of the selected population and the affinity of the individual aptamers for the target, MAFG-Myc (50 ng) was incubated with the rounds 3, 6 of aptamers or the RND40 library. OD405nm values were determined using a SpectraFluor microplate reader (TECAN, Barcelona, Spain).

[3] = biological target: T3, MAFG in H23S and H23R cells (Homo sapiens, UniProt O15525); assay: Aptacytochemistry with digoxigenin-labeled individual aptamers; format: cell-based
T3 construct: endogenous in cells; host or cells: H23S and H23R (NSCLC cells, fixed)
Experimental: Following the methodology described above, H23R cells were incubated with 6 pmol of digoxigenin-labeled aptamers (IBA Life Sciences) in selection buffer for 1 hour at room temperature. Subsequently, cells were washed three times with PBS and incubated with anti-digoxigenin conjugated with 5′ AlexaFluor 488 (R&D systems, USA) at 1/500 dilution in blocking buffer for 1 hour at room temperature, as secondary antibody. Finally, the cells were mounted on glass slides using glycerol-buffer containing p-phenylenediamine and 1/750 dilution of Dapi for nuclear staining. Controls were made by omitting the aptamer. Colocalization was assessed by confocal microcopy as described in (iii).

[4] = biological target: T4, MAFG in tumor samples of patients with lung cancer (Homo sapiens, UniProt O15525); assay: Aptahistochemistry in NSCLC tumor samples; conditions: 20 tumor samples classified by MAFG mRNA levels
T4 construct: from tissue; host or cells: Formalin-fixed paraffin-embedded NSCLC tumour sections
Experimental: The formalin-fixed and paraffin-embedded tissue sections of patients with lung cancer were baked 15 minutes at 60° C. Deparaffinization was performed by two washes of xylene for 10 minutes each. Tissue sections were rehydrated by a sequential wash in 100%, 90%, 80%, 70% ethanol and distilled water for 5 minutes each. Antigen retrieval was achieved by heat treatment in a pressure cooker for 2 minutes in 10 mM citrate buffer (pH 6.5). Endogenous peroxidase activity of tissues was blocked with 0.3% […]. The primary binding reaction was performed with 10 pmol/ml of digoxigenin-conjugated aptamers overnight at room temperature. The secondary binding reaction was performed with anti-digoxigenin conjugated with POD (Roche; 1/200 dilution in TBS) for 45 minutes. Staining was done using the Immunoperoxidase DAB kit (Master Diagnostica), according to the manufacturer's instructions. The sections were counterstained with hematoxylin.
We then took advantage of the aptacytochemistry to perform an aptamer-based histochemistry in 20 tumor samples from our cohort of patients with known mRNA levels of MAFG. […] To determine the correlation between the aptahistochemistry and the mRNA levels of MAFG, we calculated the percentage of cells with positive staining from the total number of cells computed at four different areas randomly selected for each sample.

H23R cells = assay: Viability to CDDP after aptamer transfection (resistance index); format: cell-based, human; conditions: aptamer 25 nM, CDDP 72 h
Experimental: FIG. 6. Viability curves combining the best dose of aptamers (25nM) and increasing doses of CDDP. Each experimental group was exposed for 72 h to 6 different CDDP concentrations after aptamers transfection; data were normalized to each untreated control, set to 100% and represent the mean±SD of at least 3 independent experiments performed in quadruplicate at each drug concentration for each cell line analyzed 25nM of aptamers and increasing doses of CDDP in H23S/R cells.
Once identified the best dose of aptamers, cells were transfected with aptamers and treated with increased doses of CDDP to assay viability and ROS production as mentioned above. In parallel, for all the experiments, cells were seeded in 24-well plates for aptamers extraction and confirmation of aptamers transfection.
HEK293 and H23S/R cells were seeded into 96-well plates then transfected with 5, 12.5, 25, 75 and 100 nM of MAFG aptamers or treated with PBS-Mg using Jet Pei PolyPlus transfection reagent (PolyPlus Transfection, USA). The dose of 25 nM aptamer was afterwards used in combination with increased doses of CDDP to assay viability and ROS production as described above. To confirm the aptamer-transfection efficiency cells were seeded in 24-well plates for aptamer isolation and confirmation of aptamer transfection by quantitative analysis. A Myc-DDK-tagged ORF clone of MAFG the negative control pCMV6 were used for in transient transfection (OriGene, USA) in combination with MAFG-aptamers following the same procedure.

Row | Molecule | binding result (BSA) | binding result [1] | interaction of aptamers with the 10 MAFG peptides by ELONA [2] | affinity against MAFG (MAFG-Myc) | binding capacity to the target (MAFG-Myc) | binding signal relative to BSA protein (MAFG-Myc) | cellular localization of the aptamer [3] | number of dots per nucleus, H23R versus H23S [3] | percentage of positive cells in samples with higher MAFG levels [4] | CDDP resistance index after aptamer transfection (H23R cells)
1 | B1 | no binding |  |  |  |  |  |  |  |  | 
2 | B2 | no binding | binds |  |  |  |  |  |  |  | 
3 | B3 | no binding |  |  |  |  |  |  |  |  | 
4 | B4 |  |  | recognized peptide M4 | high affinity | high binding capacity to the target in the nanomolar range | four times that of the BSA protein | also present in the cytoplasm | remarkable differences | significant increment in the percentage of positive cells | no changes
5 | B5 |  |  | recognized peptide M4 | high affinity | high binding capacity to the target in the nanomolar range | four times that of the BSA protein |  | no differences |  | no changes

— patent publication US20200270310A1, “MAFG AS A POTENTIAL THERAPEUTIC TARGET TO RESTORE CHEMOSENSITIVITY IN PLATINUM-RESISTANT CANCER CELLS” (FUNDACÓIN PARA LA INVESTIGACIÓN BIOMÉDICA DEL HOSPITAL …, priority 2017, published 2020)
